Reference: article PMC7954662 (Science (New York, N.Y.), 2020)

Molecular target: Human GCGR (Q27-F477) with N-terminal FLAG and C-terminal octahistidine tag (human, UniProt P47871 27-477)
Experiment: cryo-EM structure

Sequence of Human GCGR (Q27-F477) with N-terminal FLAG and C-terminal octahistidine tag (P47871 27-477): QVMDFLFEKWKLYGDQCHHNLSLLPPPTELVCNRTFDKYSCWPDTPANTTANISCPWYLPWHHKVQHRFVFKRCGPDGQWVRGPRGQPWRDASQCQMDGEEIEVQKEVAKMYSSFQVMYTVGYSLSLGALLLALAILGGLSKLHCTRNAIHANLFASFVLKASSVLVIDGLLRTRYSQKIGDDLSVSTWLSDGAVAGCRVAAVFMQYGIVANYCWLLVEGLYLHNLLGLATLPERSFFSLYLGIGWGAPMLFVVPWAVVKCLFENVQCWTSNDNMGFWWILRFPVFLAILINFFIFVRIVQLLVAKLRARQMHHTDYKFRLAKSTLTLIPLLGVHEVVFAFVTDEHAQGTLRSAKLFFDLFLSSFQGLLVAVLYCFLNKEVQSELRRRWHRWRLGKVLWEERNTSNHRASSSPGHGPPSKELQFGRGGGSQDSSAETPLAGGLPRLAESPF

binding result: binds
B1: Gαs (human, short splice variant), subunit of the Gs heterotrimer (natural protein)
chain: MGCLGNSKTEDQRNEEKAQREANKKIEKQLQKDKQVYRATHRLLLLGAGESGKSTIVKQMRILHVNGFNGDSEKATKVQDIKNNLKEAIETIVAAMSNLVPPVELANPENQFRVDYILSVMNVPDFDFPPEFYEHAKALWEDEGVRACYERSNEYQLIDCAQYFLDKIDVIKQADYVPSDQDLLRCRVLTSGIFETKFQVDKVNFHMFDVGGQRDERRKWIQCFNDVTAIIFVVASSSYNMVIREDNQTNRLQEALNLFKSIWNNRWLRTISVILFLNKQDLLAEKVLAGKSKIEDYFPEFARYTTPEDATPEPGEDPRVTRAKYFIRDEFLRISTASGDGRHYCYPHFTCAVDTENIRRVFNDCRDIIQRMHLRQYELL
